# Source: patent EP2918281A1 (Max-Planck-Gesellschaft zur Förderung der Wissenschaften …, dated 2015)
# B1: inhibitor 04 (other, not shown: small tags and cut ends)
# chain: KMEGKSMLKLSHVLAFLLLASLFQSLMARDLISDGIEVLQLPVENEGESVFCPGKLSWPELVGMPAGYAKAIIEKENSIVHDVRLLLPGMVKPANYVCGRVFLVVDLKLIVQIPPSMG
# Target: HIV-1 protease (EC 3.4.23.16) (HIV-1)
# Experiment: cell-based or functional assay
binder,measurement,value
B1,IC50 (enzyme inhibition),670 nM
